Measured values published in patent publication US20250223280A1.
*1 amine or outer side, *2 acyl side, *3 side chain or, on linkers, in order; H or OH if unused. Bridges are numbered along the chain shown (N, C = ends). [ ]: non-standard residue; d: D form. N5,N5‑dimethylglutamine = CN(C)C(=O)CC[C@H](N[*:1])C(=O)[*:2]; Pro(4S-NH2) = N[C@@H]1CN[C@H](C(=O)O)C1

Key:
IgG [1] = experiment: SPR, IgG immobilised on CM5 chip, compound as analyte; value from the legend of the grade (**** = Kd <100 nM)
IgG [2] = experiment: SPR, IgG immobilised on CM5 chip, compound as analyte; value from the legend of the grade (++++ = Kd <100 nM)

Kd (IgG [1]) [nM] | Kd (IgG [2]) [nM] | Binder
< 100 | < 100 | cyclo([Pro(4S-NH2)]NCAWHLG[N5,N5‑dimethylglutamine]LVWCT[dP]) (disulfide 3-13; SMILES CC(C)C[C@@H]1NC(=O)[C@H](Cc2c[nH]cn2)NC(=O)[C@H](Cc2c[nH]c3ccccc23)NC(=O)[C@H](C)NC(=O)[C@@H]2CSSC[C@H](NC(=O)[C@H](Cc3c[nH]c4ccccc34)NC(=O)[C@H](C(C)C)NC(=O)[C@H](CC(C)C)NC(=O)[C@H](CCC(=O)N(C)C)NC(=O)CNC1=O)C(=O)N[C@@H]([C@@H](C)O)C(=O)N1CCC[C@@H]1C(=O)N1C[C@@H](N)C[C@H]1C(=O)N[C@@H](CC(N)=O)C(=O)N2) [Intermediate 27]
< 100 | < 100 | PDCAWHLGELVWCTP (residue 1 = (2S,4S)-4-aminoproline; residue 12 = 6-chlorotryptophan; residue 15 = D-Pro; backbone cyclised head to tail; disulfide Cys3-Cys13) [Intermediate 19]
< 100 | < 100 | cyclo([Pro(4S-NH2)]ACAWHLG[N5,N5‑dimethylglutamine]LVWCT[dP]) (disulfide 3-13; SMILES CC(C)C[C@@H]1NC(=O)[C@H](Cc2c[nH]cn2)NC(=O)[C@H](Cc2c[nH]c3ccccc23)NC(=O)[C@H](C)NC(=O)[C@@H]2CSSC[C@H](NC(=O)[C@H](Cc3c[nH]c4ccccc34)NC(=O)[C@H](C(C)C)NC(=O)[C@H](CC(C)C)NC(=O)[C@H](CCC(=O)N(C)C)NC(=O)CNC1=O)C(=O)N[C@@H]([C@@H](C)O)C(=O)N1CCC[C@@H]1C(=O)N1C[C@@H](N)C[C@H]1C(=O)N[C@@H](C)C(=O)N2) [Intermediate 26]
< 100 | < 100 | cyclo([Pro(4S-NH2)]DCAWHLG[N5,N5‑dimethylglutamine]LVWCT[dP]) (disulfide 3-13; SMILES CC(C)C[C@@H]1NC(=O)[C@H](Cc2c[nH]cn2)NC(=O)[C@H](Cc2c[nH]c3ccccc23)NC(=O)[C@H](C)NC(=O)[C@@H]2CSSC[C@H](NC(=O)[C@H](Cc3c[nH]c4ccccc34)NC(=O)[C@H](C(C)C)NC(=O)[C@H](CC(C)C)NC(=O)[C@H](CCC(=O)N(C)C)NC(=O)CNC1=O)C(=O)N[C@@H]([C@@H](C)O)C(=O)N1CCC[C@@H]1C(=O)N1C[C@@H](N)C[C@H]1C(=O)N[C@@H](CC(=O)O)C(=O)N2) [Intermediate 23]
< 100 | < 100 | cyclo([Pro(4S-NH2)]ACAWHLGALVWCT[dP]) (disulfide 3-13; SMILES CC(C)C[C@@H]1NC(=O)[C@H](C)NC(=O)CNC(=O)[C@H](CC(C)C)NC(=O)[C@H](Cc2c[nH]cn2)NC(=O)[C@H](Cc2c[nH]c3ccccc23)NC(=O)[C@H](C)NC(=O)[C@@H]2CSSC[C@H](NC(=O)[C@H](Cc3c[nH]c4ccccc34)NC(=O)[C@H](C(C)C)NC1=O)C(=O)N[C@@H]([C@@H](C)O)C(=O)N1CCC[C@@H]1C(=O)N1C[C@@H](N)C[C@H]1C(=O)N[C@@H](C)C(=O)N2) [Intermediate 25]
< 100 | < 100 | PDCXWHLGELVWCTP (residue 1 = (2S,4S)-4-aminoproline; residue 4 (X) = homoserine; residue 15 = D-Pro; backbone cyclised head to tail; disulfide Cys3-Cys13) [Intermediate 21]
< 100 | < 100 | PDCAWHLGELVWCTP (residue 1 = (2S,4S)-4-aminoproline; residue 12 = D-Trp; residue 15 = D-Pro; backbone cyclised head to tail; disulfide Cys3-Cys13) [Intermediate 24]
< 100 | < 100 | cyclo([Pro(4S-NH2)]DCAWHLG[N5‑methylglutamine]LVWCT[dP]) (disulfide 3-13) [Intermediate 22]
< 100 | < 100 | cyclo([Pro(4S-NH2)]NCAWHLGALVWCT[dP]) (disulfide 3-13; SMILES CC(C)C[C@@H]1NC(=O)[C@H](C)NC(=O)CNC(=O)[C@H](CC(C)C)NC(=O)[C@H](Cc2c[nH]cn2)NC(=O)[C@H](Cc2c[nH]c3ccccc23)NC(=O)[C@H](C)NC(=O)[C@@H]2CSSC[C@H](NC(=O)[C@H](Cc3c[nH]c4ccccc34)NC(=O)[C@H](C(C)C)NC1=O)C(=O)N[C@@H]([C@@H](C)O)C(=O)N1CCC[C@@H]1C(=O)N1C[C@@H](N)C[C@H]1C(=O)N[C@@H](CC(N)=O)C(=O)N2) [Intermediate 28]

Further lines, the binder ahead of its results:

Binder | Kd (IgG [1]) [nM] | Kd (IgG [2]) [nM]
cyclo([Pro(4S-NH2)]ACAWHLGELVWCT[dP]) (disulfide 3-13; SMILES CC(C)C[C@@H]1NC(=O)[C@H](Cc2c[nH]cn2)NC(=O)[C@H](Cc2c[nH]c3ccccc23)NC(=O)[C@H](C)NC(=O)[C@@H]2CSSC[C@H](NC(=O)[C@H](Cc3c[nH]c4ccccc34)NC(=O)[C@H](C(C)C)NC(=O)[C@H](CC(C)C)NC(=O)[C@H](CCC(=O)O)NC(=O)CNC1=O)C(=O)N[C@@H]([C@@H](C)O)C(=O)N1CCC[C@@H]1C(=O)N1C[C@@H](N)C[C@H]1C(=O)N[C@@H](C)C(=O)N2) [Intermediate 12] | < 100 | < 100
cyclo([Pro(4S-NH2)]DCTWHLGELVWCT[dP]) (disulfide 3-13; SMILES CC(C)C[C@@H]1NC(=O)[C@H](Cc2c[nH]cn2)NC(=O)[C@H](Cc2c[nH]c3ccccc23)NC(=O)[C@H]([C@@H](C)O)NC(=O)[C@@H]2CSSC[C@H](NC(=O)[C@H](Cc3c[nH]c4ccccc34)NC(=O)[C@H](C(C)C)NC(=O)[C@H](CC(C)C)NC(=O)[C@H](CCC(=O)O)NC(=O)CNC1=O)C(=O)N[C@@H]([C@@H](C)O)C(=O)N1CCC[C@@H]1C(=O)N1C[C@@H](N)C[C@H]1C(=O)N[C@@H](CC(=O)O)C(=O)N2) [Intermediate 16] | < 100 | < 100
cyclo(PDCAWHLGELVWCT[dP]) (disulfide 3-13; not fully specified (residue 1)) [Intermediate 9] |  | < 100
cyclo(PDCAWHLGELVWCT[dP]) (disulfide 3-13; not fully specified (residue 1); also: conjugate: hex-5-ynoyl peptide clicked to azide A18) [Compound 53] | < 100 | < 100
cyclo([Pro(4S-NH2)]DCAWHLGQLVWCT[dP]) (disulfide 3-13; SMILES CC(C)C[C@@H]1NC(=O)[C@H](Cc2c[nH]cn2)NC(=O)[C@H](Cc2c[nH]c3ccccc23)NC(=O)[C@H](C)NC(=O)[C@@H]2CSSC[C@H](NC(=O)[C@H](Cc3c[nH]c4ccccc34)NC(=O)[C@H](C(C)C)NC(=O)[C@H](CC(C)C)NC(=O)[C@H](CCC(N)=O)NC(=O)CNC1=O)C(=O)N[C@@H]([C@@H](C)O)C(=O)N1CCC[C@@H]1C(=O)N1C[C@@H](N)C[C@H]1C(=O)N[C@@H](CC(=O)O)C(=O)N2) [Intermediate 18] | < 100 | < 100
cyclo([Pro(4S-NH2)]DCAWHLGALVWCT[dP]) (disulfide 3-13; SMILES CC(C)C[C@@H]1NC(=O)[C@H](C)NC(=O)CNC(=O)[C@H](CC(C)C)NC(=O)[C@H](Cc2c[nH]cn2)NC(=O)[C@H](Cc2c[nH]c3ccccc23)NC(=O)[C@H](C)NC(=O)[C@@H]2CSSC[C@H](NC(=O)[C@H](Cc3c[nH]c4ccccc34)NC(=O)[C@H](C(C)C)NC1=O)C(=O)N[C@@H]([C@@H](C)O)C(=O)N1CCC[C@@H]1C(=O)N1C[C@@H](N)C[C@H]1C(=O)N[C@@H](CC(=O)O)C(=O)N2) [Intermediate 17] | < 100 | < 100
cyclo([Pro(4S-NH2)]ACSWHLGELVWCT[dP]) (disulfide 3-13; SMILES CC(C)C[C@@H]1NC(=O)[C@H](Cc2c[nH]cn2)NC(=O)[C@H](Cc2c[nH]c3ccccc23)NC(=O)[C@H](CO)NC(=O)[C@@H]2CSSC[C@H](NC(=O)[C@H](Cc3c[nH]c4ccccc34)NC(=O)[C@H](C(C)C)NC(=O)[C@H](CC(C)C)NC(=O)[C@H](CCC(=O)O)NC(=O)CNC1=O)C(=O)N[C@@H]([C@@H](C)O)C(=O)N1CCC[C@@H]1C(=O)N1C[C@@H](N)C[C@H]1C(=O)N[C@@H](C)C(=O)N2) [Intermediate 15] | < 100 | < 100
cyclo([Pro(4S-NH2)]NCAWHLGELVWCT[dP]) (disulfide 3-13; SMILES CC(C)C[C@@H]1NC(=O)[C@H](Cc2c[nH]cn2)NC(=O)[C@H](Cc2c[nH]c3ccccc23)NC(=O)[C@H](C)NC(=O)[C@@H]2CSSC[C@H](NC(=O)[C@H](Cc3c[nH]c4ccccc34)NC(=O)[C@H](C(C)C)NC(=O)[C@H](CC(C)C)NC(=O)[C@H](CCC(=O)O)NC(=O)CNC1=O)C(=O)N[C@@H]([C@@H](C)O)C(=O)N1CCC[C@@H]1C(=O)N1C[C@@H](N)C[C@H]1C(=O)N[C@@H](CC(N)=O)C(=O)N2) [Intermediate 13] | < 100 | < 100
PDCAWHLGELVWCTP (residue 1 = (2S,4S)-4-aminoproline; residue 15 = D-Pro; backbone cyclised head to tail; disulfide Cys3-Cys13; 4-amino group of residue 1 acylated with PEG4-propanoyl capped by hex-5-ynamide) [Intermediate 4] | < 100 | < 100
